{"source": "a protein production outcome set (Wang et al. 2014)"}
{"test": "label from the status in PepcDB records"}
{"sequence": "METLDNHDQGFCRQVPRQAVCGFSRRTGWGGAAIFVMLMTLALAAPVQAQSLRQGVSAYQRQDYVAASRIFIPLAERGNAAAQTYLGLLFETGRGLPQNYTEAAMWYRRAAEQGDSRAQYSLGLLYDRGFGVPQDVVEASKWLNLSTAAAPPRAREARVRIRDAVTTKMTRGEIAQARLRALEWAPSREH", "protein production": "failed"}
{"sequence": "METNQLRGIFYMMAAMLLISVQEALAKYLGQALPVAQVVWARYLGHLVLMIILLWPKNGMSLLKTNKLFIQIARSLILLIDTVLFFFGLTMLGLAEATAIFFTVPLLVLLLSIPLLGERVSASSIVAVIVGFIGTLIIVRPGINGLGSSDLGIGALFIFGAACCTAIYNVTTRKLSASEPIPVTLFYTAIVGAVVTSLFLPFIWETPTSLEVWAALIFIGLFGGSAHSLIIISHKYAAATTVAPFIYSQIFWALGLGWLMFGELPDFYVYFGGAIVISSGLYLFYHGRTRVNTASQQLGKDPLLVNAAKIKALQNRP", "protein production": "failed"}
{"sequence": "METPKGTIIFTTVGRTHYGFDVFSLNIATSVERRLTDGVSVNFNAQFVNDKSDDVVFVSERNGSARIYKTRSGISKPEQIPGAPESYFHDRPIITQNNRLYFISAHEQPDRYFKNWSALYTVELNSAKREVTRVTPPDTADFSPAVSQSGDFLAVASYGTRSWGGEFHEINTDITVFKASKPETRVVICERGGWPTWSGDSTVFFHHQADDGWWSIFRVDIPENFTEYTDFPITPIRVTPSGLHCFTPAAFRDGKRIALATRRRGVNHRHIEIYDLENTTFQPVTESLNPSFHHYNPFVSPDSEFLGYHRFRGESTQGESIVPNIESIVSPIKTLRLLRINGSFPSSSPNGDLIALNSDFDINGGIKVSKSDGSKRWTLIKDRTAFYNSWSPTERHVIYTSLGPIFSPARIAVQIARIKFDPSDLTADKEDLPCDVKILTLENTGNNAFPSCSPDGKSIVFRSGRSGHKNLYIVDAVNGESNGGGIRRLTDGPWIDTMPCWSPKGDLIGFSSNRHNPENTAVFGAYVVRPDGTGLRRIQISGPEGSEEAARERVNHVSFNKDGDWLVFAANLSGVTAEPVTMPNQFQPYGDLYVVKLDGTGLRRLTWNGYEDGTPTWHTADELDLSQLNLNGQDGDKLEGQFEEPLWISCDI", "protein production": "failed"}
{"sequence": "METQFHGGDGEDPWLARDKLYHVIFCFSISLIFSTLASFSRYSFLRRHSIWIGSAFSLAAGAAKEAADQIGIFPSAGASVRDAVADAIGVVIAALVLLLWKSRRSRTRPILPI", "protein production": "failed"}
{"sequence": "METRAAENTAIFMCKCCNLFSPNQSELLSHVSEKHMEEGVNVDEIIIPLRPLSTPEPPNSSKTRDEFLVMKRKRGRPKGSTKKSSTEEELAENIVSPTEDSPLAPEEGNSLPPSSLECSKCCRKFSNTRQLRKHICIIVLNLGEEEGEAGNESDLELEKKCKEDDREKASKRPRSQKTEKVQKISGKEARQLSGAKKPIISVVLTAHEAIPGATKIVPVEAGPPETGATNSETTSADLVPRRGYQEYAIQQTPYEQPMKSSRLGPTQLKIFTCEYCNKVFKFKHSLQAHLRIHTNEKPYKCPQCSYASAIKANLNVHLRKHTGEKFACDYCSFTCLSKGHLKVHIERVHKKIKQHCRFCKKKYSDVKNLIKHIRDAHDPQDKKVKEALDELCLMTREGKRQLLYDCHICERKFKNELDRDRHMLVHGDKWPFACELCGHGATKYQALELHVRKHPFVYVCAVCRKKFVSSIRLRTHIKEVHGAAQEALVFTSSINQSFCLLEPGGDIQQEALGDQLQLVEEEFALQGVNALKEEACPGDTQLEEGRKEPEAPGEMPAPAVHLASPQAESTALPPCELETTVVSSSDLHSQEVVSDDFLLKNDTSSAEAHAAPEKPPDMQHRSSVQTQGEVITLLLSKAQSAGSDQESHGAQSPLGEGQNMAVLSAGDPDPSRCLRSNPAEASDLLPPVAGGGDTITHQPDSCKAAPEHRSGITAFMKVLNSLQKKQMNTSLCERIRKVYGDLECEYCGKLFWYQVHFDMHVRTHTREHLYYCSQCHYSSITKNCLKRHVIQKHSNILLKCPTDGCDYSTPDKYKLQAHLKVHTALDKRSYSCPVCEKSFSEDRLIKSHIKTNHPEVSMSTISEVLGRRVQLKGLIGKRAMKCPYCDFYFMKNGSDLQRHIWAHEGVKPFKCSLCEYATRSKSNLKAHMNRHSTEKTHLCDMCGKKFKSKGTLKSHKLLHTADGKQFKCTVCDYTAAQKPQLLRHMEQHVSFKPFRCAHCHYSCNISGSLKRHYNRKHPNEEYANVGTGELAAEVLIQQGGLKCPVCSFVYGTKWEFNRHLKNKHGLKVVEIDGDPKWETATEAPEEPSTQYLHITEAEEDVQGTQAAVAALQDLRYTSESGDRLDPTAVNILQQIIELGAETHDATALASVVAMAPGTVTVVKQVTEEEPSSNHTVMIQETVQQASVELAEQHHLVVSSDDVEGIETVTVYTQGGEASEFIVYVQEAMQPVEEQAVEQPAQEL", "protein production": "not failed"}
{"sequence": "METRAHHVLIGLFTVIVVAGALLFGLWLAKSSVDSAFQDYQIVFNEAVSGLSKGSSVQYSGIKVGDVVNLRLDPKDPRRVLAQIRLGSETPIKEDTQAKLALTGITGTSIIQLSGGTPQSPTLKGKDGELPTIIASPSPIARLLNNSNDLMTGVNLLLHNANRMFSPDNVARVSSTLDNLQKTSASIAEQRDDLRQLMQQLGSISKQTGAMLEQTTALMRNANGLLNDQGKQMFGSAEHAMRSLEQSSATLNKLLSDNQDSLNNGMQGLNGLAPAVRELRETLSSLRAITRRLEANPGGYLLGNEKNKEFTPLEHHHHHH", "protein production": "not failed"}
{"sequence": "METSLISPMKENNTAQPQQREENTQQNLNAAVPIKQQSPGLLPEALEVGVKPDPASQILATQEIENPVAGFEGDSDKFHISTDEMAEHLQASDLWYCPDGSFVKKIIVHGHGLDKPKLGSKCRVLALGFPFGSGMPEGWTELTIGTGQWREKTWGELTEKCLESMRQGEEAKIHLPGSSTPLAKLRLDSFTNGRDSWELEAVEKEALAKEEHRRGTELFRAGNPQGAARCYGRALRLLLTLPPPGPPERTILHANLAACQLLLGHPQLAAQSCDRVLEREPGHLKALYRRGVAQAALGDLDKATADLKKVLAVDPKNRAAKEELGKVVIQGKIQDAGLARGLRKMFS", "protein production": "failed"}
{"sequence": "METWITSIMADFGYIGIFLLIMIENLFPPIPSEIILTFGGFMTTVSSLNVVMVIIVATLGSVVGAILLYKVASYFGKERLTHIVLKYGRVLRLKESDIERAESFFLKYGSWAVFLCRMIPLIRSLISIPAGMTKMKMSRFLILTTAGSLLWNTVLIGLGALLGESWGEIVVFMDSFSTVIYSIIAVITLLGLGFFFRARFKKTLDEE", "protein production": "failed"}
{"sequence": "MEVAPSFSSVLKDCAVIEGQDFVLQCSVRGTPVPRITWLLNGQPIQYARSTCEAGVAELHIQDALPEDHGTYTCLAENALGQVSCSAWVTVH", "protein production": "not failed"}
{"sequence": "MEVFKVFATLSLVDMISGPLGSVSEGMELLGGKVSALGSRMGKLAVAMAPVALAAGVLLGTLGLAAREAIAFESAMADVAKVVNFESAGELKAMSATILDMSTRIPMAADGLAAIVAAAAQSGVARQDLTDFAEQAAKMGVAFDLTGDQAGKMMADWRAGMNLTLPRVYALADATNHLSNNMNATAPALGEVIQRVGAVGMAAGLSETQVAALGAAFLSAGASPEIASTALKKFTSTLVRGSALSKDAQAAFGALGFSVTQMAKDMQTDAQGTIFKVLQALADKPKELQMSLLTEMFGEEALGAIAPLLANMGNLSQAFDLVGDSAAYAGSMQGEFEARSRTTENALLLLGNKAKALMIVIGSYFLPVIGAVADALGGFVDMLRAAAQTAGGEFALKLVAGVSAAIVAATALSGALWLLSAAGPMLAAALAPLKAALLGLSWPMWAIIAVVGALYLAYKTNFAGIGDTLRRWWQTVSLVVRGVMAVFSTLTDGVGEIRGELATEIRAAGLEGLVASVGSVVYRVQAFFRGLWDGVSGVGDRLAVVFGPTLDRLGAVFGQLFTVLGGLGEAFFGVSAASDVSGWERFGNVIGSVVCGAVEILATAFTALLAPIEMAAGMLQFVLDLFNGVSLFDAGAKLLGTFVDGIMSMVSAPFEAAKKALDMVGKLLPHSDADEGPLSTLTASGMATLSTMGEGMTAAAPGLHDTLETALGDAVAPQIEAPATADVQPGRKTARAAQGRGVTITIGTLNLPGVTNAQDFVAQLQDFVAAYDGVPEGGLV", "protein production": "failed"}
{"sequence": "MEVFLKEFLLNKFFIDFFYKNQNNITIKTILVTFKVIFSICFNSSNFGLRYSKKKTLNLSELMHLVTFMLAYFLIQV", "protein production": "failed"}
{"sequence": "MEVKIEKPTPEKLKELSVEKWPIWEKEVSEFDWYYDTNETCYILEGKVEVTTEDGKKYVIEKGDLVTFPKGLRCRWKVLEPVRKHYNLF", "protein production": "not failed"}
{"sequence": "MEVKVQSDDLEYVVSTVRSYINSYETDVNPLYIRFYFFESDNPLLDENFDEIRKILVPSGYIPAVIKGPENYIEVTRRPKENYRSIYVNIIMLVLTLLSTVYVGSIYAASFVRPGPYYEFYKLLYGFVFFSLPLMFILGIHETAHYLVARRYRVNASLPFFIPFPYIIGTFGAFVSLRDPIPDRKAMTEIGAAGPIAGFLASIPLMFLAQYFEKVIKPVNNVIPFQLNYPLIYKLFGIFEPVKVPVFPMVFAVWVGIFATAMNLIPAGQLDGGHIVRGLLGSRAYILNYIFLGFLFYLAIVYNYLGWLFLALFVIFLGLVHPPALNDYARIKMRDVFIGIFCLLMFIITFTPLPIKP", "protein production": "failed"}
{"sequence": "MEVLRYRSRPIVGGEAEGPAVVIDSLSFYGEVDPETGVTSGGKPLAGRVAAIRRSRGSTVGSYVIYALKENGVAPLAILMERAEPIVIAGCVLAGIPLYDGLPPEFFERVRDGYRVRVHSDGLVEVLGPGQP", "protein production": "failed"}
{"sequence": "MEVQETRVQTDRVLTIPNILSMARLVGVPVFLWLILRPEFGGPKSDGWALLVLALSGISDYLDGKLARRWNQISSLGRLLDPAADRLYILSTLVGLTWREILPIWLTAALLARELVLLVMVGILRRHGYPPPQVNFLGKAATFNLMYAFPLLLLSDSSGWIGSLAAIFGWAFAGWGTTLYWWAGVLYMVQVRRLVRADAVAD", "protein production": "failed"}
{"sequence": "MEVSRALLFELGVLLAVLAVLGAVARRFALSPIPVYLLAGLSLGNGGILGVAAAGEFIATGAPIGVVLLLLALGLEFSATEFASSLRHHLPSAGVDIVLNATPGAVAGWLLGLDGVAILGLAGVTYISSSGVIARLLEDLRRLGNRETPAVLSVLVLEDFAMAAYLPLFAVLATDGSWLEAVVGMTVAIAALLGAFAASYRWGHHVGRLVTHPDSEQLLLRVLGITLIVAAVAESLHASAAVGAFLVGLTLTGETADRARMVLTPLRDLFATIFFLGIGLSVDPGKLVSMLPVALALAAVTAATKVATGMFAARREGVARRGQLRAGTALVARGEFSLIIIGLAGASIPGVAALATAYVFVMAIVGPILARYTGGGLPAAAVASN", "protein production": "failed"}
{"sequence": "MEVVRIPEFKEKTAPGAYYQQPAIDGSRPGRFYANLFDIKATPKYGMRTLAYHEGIPGHHFQVAVAMELEGQPLIRKMAPFTAYIEGWALYSERVAWELGFQQDPFDNIGRLQAELFRAVRLVVDTGIHHSRWTREQAIDYMKKNTGMSDRDVTAEIERYIVMPGQATAYKVGMMKILELREKAKQALGDKFDLRDFHDVVLKNGAVPLDILEKLVDRYIADKR", "protein production": "failed"}
{"sequence": "MEWLNEPPNWSHSDQKIIVTTSPKTDFWRITHYGFIRDSGHFYFDRVSTDFVVDVKIKGNYKDLYDQAGIMIRADEQHWIKTGIEYVDGVQNLSAVVTHNYSDWSFTPLLNPPNIFQVRVERCQEAIHIAYLDEYSRYVPFRMAYFPVALDIQVGIMCASPQGNGYEVIFEDYQLTKKGEKLSLEHHHHHH", "protein production": "failed"}
{"sequence": "MEWQAEQAYNHLPPLPLDSKLAELAETLPILKACIPARAALAELKQAGELLPNQGLLINLLPLLEAQGSSEIENIVTTTDKLFQYAQEDSQADPMTKEALRYRTALYQCFTQLSNRPLCVTTALEICSTIKSVQMDVRKVPGTSLTNQATGEVIYTPPAGESVIRDLLSNWEAFLHNQDDVDPLIKMAMAHYQFEAIHPFIDGNGRTGRVLNILYLIDQQLLSAPILYLSRYIVAHKQDYYRLLLNVTTQQEWQPWIIFILNAVEQTAKWTTHKIAAARELIAHTTEYVRQQLPKIYSHELVQVIFEQPYCRIQNLVESGLAKRQTASVYLKQLCDIGVLEEVQSGKEKLFVHPKFVTLMTKDSNQFSRYAL", "protein production": "not failed"}
